Assay results: the nanobody polyreactivity screen of Harvey et al. (2022)

Assay: yeast display, Sf9 membrane polyspecificity reagent, FACS + sequencing; frameworks hold sequencing errors
Summary of the method: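 In a synthetic yeast display library (Saccharomyces cerevisiae BJ5465), nanobody expression was induced with galactose for 36–48 hours. FACS gates were set low and high (top ~1%) using anti-HA fluorescence for expression and streptavidin fluorescence for binding of the Sf9 membrane reagent. Each polyreactivity label is drawn from the gate of origin.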

| Sequence | polyreactivity (PSR sort gate) |
| --- | --- |
| QVQLVESGGGLVQAGGSLRLSCAASGSTFFRNAKGWYRQAPGKERELVAANSSTGGTTYYAHSVKGRFTISRDNAQNTVYLQMNSLKPEETAVYYCAAAGYIENDGYVQKFEYWGQGTQVTVSS | low polyreactivity |
| QVQLVESGGGLVQAGGSLRLSCAASGSTFFRYAMGLYRQAPGKERELVAAISWSGGTTYYADSVKGRFTISRDNAQNTVYLQMYSLKPEDTAVYYCNAVRQGHILDYWGQGTQVTVSS | low polyreactivity |
| QVQLVESGGGLVQAGGSLRLSCAASGSTFFRYAMGWYRQAPGKEREFVAAISKRGGSTHYADSVQGRFTLSRDNAKNTVYLQMNSLKPEHTAVYYCAASSFTSSYNYWGQGTQVTVSS | high polyreactivity |
| QVQLVESGGGLVQAGGSLRLSCAASGSTFFRYSMGWYRQAPGKEREFVAAISKRGGSTHYADSVKGRFTITRDNAKNTVYLQMNSLKPEDTAVYYCAASSFNSSYNYWGQGTQVTVSS | high polyreactivity |
| QVQLVESGGGLVQAGGSLRLSCAASGSTFFSNTMGWYRQAPGKERELVAAITDSGTSTYYADSVKGRFTISRDNAKNTVYLQMNSLKPEDTAVYYCAAYPSGWYDYWGQGTLVTVSS | low polyreactivity |
| QVQLVESGGGLVQAGGSLRLSCAASGSTFFSYAMGWYRQAPGTERELVAAITRSGGSTYYADSVKGRFTISRDNAKNTVYLQMNSLKPEDTAVYYCAPRRYEPKAVYYWGQGTQVTVSS | high polyreactivity |
| QVQLVESGGGLVQAGGSLRLSCAASGSTFFTYAMGWYRQAPGKERELVASISIGGSTNYADSVKGRFTISRDNAKNTVYLQMNSLKPEDTAVYYCAIRYFTFGVDYDYWGHGTQVTVSS | low polyreactivity |
| QVQLVESGGGLVQAGGSLRLSCAASGSTFFVNAMGWYRQAPGKERELVAAISYSGGSTYYADSVKGRFTSSRDNAKNTVYLQMNSLKPEDTAVYYCAKDGGPAQDIGMDYCGQGTQVTVSS | low polyreactivity |
| QVQLVESGGGLVQAGGSLRLSCAASGSTFFVYTMGWYRQAPGKERELVAAISGSGGSTSYADSVKGRFTISRDNAKNTVYLQMNSLKPEDTAVYYCAARRHVYLRGSTFEFNYWGQGTQVTVSS | high polyreactivity |
| QVQLVESGGGLVQAGGSLRLSCAASGSTFFYNAMGWSRQAPGKERELVAAIRFSGGSTRYADSVKGRFTISRDNAKNTVYLQMNSLKPEDTAVYYCNARGFRESIWYQYDYWGQGTQVTVSS | high polyreactivity |
| QVQLVESGGGLVQAGGSLRLSCAASGSTFFYNAMGWYRQAPGKERESTNYADSVKGRFTISRDNAKNTVYLQMNSLKPEDTAVYYSAKDRSYYRKFSSYRLHDYWGHGTQVTVSS | low polyreactivity |
| QVQLVESGGGLVQAGGSLRLSCAASGSTFFYYTIGWYRQAPGKERELVASITNRGGNTYYADSVKGRFTISRDNAKNTVYLQTNSLKPEDTAVYYCARRYYGYSGRYDYWGQGTQVTVSS | high polyreactivity |
| QVQLVESGGGLVQAGGSLRLSCAASGSTFFYYTMGWYRQAPGKERELVASITNRGGNTYYADSVKGRFTISRDNAKTTVYLQMNSLKPEDTAVYYCARRYYWYSGRYDYWGQGTQVTVSS | high polyreactivity |
| QVQLVESGGGLVQAGGSLRLSCAASGSTFGAYAMGWYRQAPGKERELVAAISRSGASTYYADSVKGRFTISRDNAKNTVYLQMNSLKPVDTAVYYCAAKIVSRYRVIYDYWGQGTQVTVSS | high polyreactivity |
| QVQLVESGGGLVQAGGSLRLSCAASGSTFGDYAMGWSRQAPGKERELVAAISRGGSTYYADSVKGRFTISRDNEKNTVYLQMNSLKPEDTAVYYCNKDEGYSASPDGSTFDYWGQGTQVTVSS | low polyreactivity |
| QVQLVESGGGLVQAGGSLRLSCAASGSTFGDYAMGWYRQAPGKERELVAAISFSDGSTYYADSVKGRFTISRDNAKNTVYLQMNSLKPEDTAVYYCAKVDYWVYRWYTYDYWGQGTQVTVSS | low polyreactivity |
| QVQLVESGGGLVQAGGSLRLSCAASGSTFGDYTMGLYRQAPGKERELVAAITLTGGSTYYADSVKGRFTISRDNAKNTVYLQMNSLKPEDTAVYYCAKEWIFDFNYWGQGTQVTVSS | low polyreactivity |
| QVQLVESGGGLVQAGGSLRLSCAASGSTFGENAMGWYRQAPGKERELVAGINSTGGSTYYADSVKGRFTISRDHAKNNVYLQMNSLNPEDTAVYYCAAGDWYSGNTSHFYYWGQGTQVTVSS | low polyreactivity |
| QVQLVESGGGLVQAGGSLRLSCAASGSTFGEYAMGWYRQAPGKERELVASITFSAGSTDYADSVKGRFTISRDNAKNTVYLQMNSLKPEDTAVYYCAADGWWPWEYDYWGQGTQVTVSS | low polyreactivity |
| QVQLVESGGGLVQAGGSLRLSCAASGSTFGFNAKGWYRKAPGKERELFAAIDKSGDRHYYADSVKGRFTISRDNAKNSVYLQMNSLKTVDTAVYYCAGDIPFYRYEYWGQGTQVTVSS | high polyreactivity |
| QVQLVESGGGLVQAGGSLRLSCAASGSTFGFNAMGWYRQAPGKERELVAAIDGSAGSTYYADSVKGRFTISRDNAKNTVYLQMNSLKPEDTAVYYCAADIYWFIEYEYWGQGTQVTVSS | low polyreactivity |
